Publication PMC11940188

Tests used:
[1] = target: Rho13 (Rhodonellum psychrophilum); assay: SEC; Superdex-200 Increase, 0.5 mL/min, Ni-NTA eluates after PD-10 desalting; 100 mM HEPES, 150 mM NaCl, 2 mM CaCl2 pH 6.5 or 50 mM MOPS, 50 mM NaCl, 2 mM CaCl2 pH 7.5; calibrated with lysozyme, carbonic anhydrase and BSA; self-association, monomer and dimer
[2] = target: Rho13 (Rhodonellum psychrophilum); assay: SAXS; nominal 1 mg/mL enzyme (Ika2 1.00, Rho13 0.94, I3C6 0.87 mg/mL by Abs280), 25 °C, 1800 s; indirect Fourier transformation and fits to AlphaFold models; self-association
[3] = target: Rho13 (Rhodonellum psychrophilum); assay: SAXS; nominal 0.5 mg/mL enzyme (Ika2 0.51, Rho13 0.46, I3C6 0.46 mg/mL by Abs280), 25 °C, 1800 s; indirect Fourier transformation and fits to AlphaFold models; self-association

share of the combined peak area, dimer peak [1]: 26%
stoichiometry N [1]: 2
dimer concentration in the SAXS model fit [2]: 0.69 mg/mL
monomer concentration in the SAXS model fit [2]: 0.03 mg/mL
n-mers (SAXS model fit) [2]: 1.96
n-mers (indirect Fourier transformation) [2]: 1.58
dimer concentration in the SAXS model fit [3]: 0.29 mg/mL
monomer concentration in the SAXS model fit [3]: 0.06 mg/mL
n-mers (SAXS model fit) [3]: 1.83
n-mers (indirect Fourier transformation) [3]: 1.38
Substance: Rho13 (enzyme)
